Data as given in paper PMC2758918 (Nature structural & molecular biology, 2009).

Experiments:
crystal structure = molecular target: the molecule itself; experiment: crystal structure
FRET or BRET = molecular target: the molecule itself; experiment: FRET or BRET

Protein | stoichiometry N (crystal structure) | binding result (FRET or BRET)
zinc transporter YiiP from Escherichia coli (natural protein, UniProt P69380 1-300, looked up, ethyl mercury phosphate or thiomerosal bound to C127 (crystal derivatives)) MNQSYGRLVSRAAIAATAMASLLLLIKIFAWWYTGSVSILAALVDSLVDIGASLTNLLVVRYSLQPADDNHSFGHGKAESLAALAQSMFISGSALFLFLTGIQHLISPTPMTDPGVGVIVTIVALICTIILVSFQRWVVRRTQSQAVRADMLHYQSDVMMNGAILLALGLSWYGWHRADALFALGIGIYILYSALRMGYEAVQSLLDRALPDEERQEIIDIVTSWPGVSGAHDLRTRQSGPTRFIQIHLEMEDSLPLVQAHMVADQVEQAILRRFPGSDVIIHQDPCSVVPREGKRSMLS | 2 | 
YiiP^C127V doubly labeled with Alexa-488 and Alexa-647 (natural protein, Escherichia coli, UniProt P69380 1-300, looked up, Alexa donor-acceptor pair (Alexa-488, Alexa-647) on cysteine (Cys287)) MNQSYGRLVSRAAIAATAMASLLLLIKIFAWWYTGSVSILAALVDSLVDIGASLTNLLVVRYSLQPADDNHSFGHGKAESLAALAQSMFISGSALFLFLTGIQHLISPTPMTDPGVGVIVTIVALIVTIILVSFQRWVVRRTQSQAVRADMLHYQSDVMMNGAILLALGLSWYGWHRADALFALGIGIYILYSALRMGYEAVQSLLDRALPDEERQEIIDIVTSWPGVSGAHDLRTRQSGPTRFIQIHLEMEDSLPLVQAHMVADQVEQAILRRFPGSDVIIHQDPCSVVPREGKRSMLS |  | binds
